The RNAGym collection of RNA variant scans (doi:10.1073/pnas.2313332121)

B1: TPR t1 (parent)
chain: GACCAAUCUGCCCUCAGAGCUCGAGAACAUCUUCGGAUGCAGAGGAGGCAGGCUUCGGUGGCGCGAUAGCGCCAACGUCCUCAACCUCCAAUGCAUCCCACCACAUGAUGAUGCCUGAAGAGCCUUGGUUUUUUG

Variants of: B1
Assay: polymerase ribozyme fitness, log enrichment relative to wild type (log ratio); higher = more active; in vitro selection for triplet polymerase activity
Outline: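 Mutant libraries of each subunit of a heterodimeric triplet polymerase ribozyme were built by PCR and transcribed. Each library went through one round of in vitro selection in triplicate: annealing with biotinylated primer, partner subunit and triplets, frozen incubation at −7 °C, gel excision of extended constructs, streptavidin-bead capture and RT-PCR. Input and output libraries were Illumina-sequenced; only genotypes with ≥10 input reads and ≥1 read per output were kept. Fitness is log2(genotype enrichment/wild-type enrichment), using inverse-variance-weighted replicate averages.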
For G48U U116C, the “polymerase ribozyme fitness (log ratio)” value was -1.64.
With G48C U133G the “polymerase ribozyme fitness (log ratio)” value was -1.8.
For G48C G60A C94G C115U, the “polymerase ribozyme fitness (log ratio)” value was -3.74.
For G48C A95G U106A, the “polymerase ribozyme fitness (log ratio)” value was -0.768.
With G48A C70U G71U the “polymerase ribozyme fitness (log ratio)” value was -0.828.
With G48C C53G the “polymerase ribozyme fitness (log ratio)” value was -0.405.
In the case of G48C C56G G71A C97A C104U U112G, the “polymerase ribozyme fitness (log ratio)” value is reported as -6.76.
In the case of G48U C76U C89G C124U G128U U132C, the “polymerase ribozyme fitness (log ratio)” value is reported as -2.96.
In the case of G48C C56G C62U U78C, the “polymerase ribozyme fitness (log ratio)” value is reported as -1.82.
With C49A C62U C85U C124G the “polymerase ribozyme fitness (log ratio)” value was 1.34.
In the case of G48U C62A U78G, the “polymerase ribozyme fitness (log ratio)” value is reported as -1.98.
In the case of C49A, the “polymerase ribozyme fitness (log ratio)” value is reported as -0.241.
For G48A C123A, the “polymerase ribozyme fitness (log ratio)” value was 0.577.
For C49A A50G C88A, the “polymerase ribozyme fitness (log ratio)” value was -1.58.
In the case of G48U U54C, the “polymerase ribozyme fitness (log ratio)” value is reported as -1.22.
In the case of C49A C73A U130C, the “polymerase ribozyme fitness (log ratio)” value is reported as 0.174.
With C49A C79A the “polymerase ribozyme fitness (log ratio)” value was -3.94.
In the case of C49A A50G, the “polymerase ribozyme fitness (log ratio)” value is reported as -1.27.
For G48A G71A, the “polymerase ribozyme fitness (log ratio)” value was -1.09.
For G48C G61U C124A, the “polymerase ribozyme fitness (log ratio)” value was 1.51.
With G48C U78G the “polymerase ribozyme fitness (log ratio)” value was -0.55.
In the case of C49A G58C C88G A91U C104G A119G U133G, the “polymerase ribozyme fitness (log ratio)” value is reported as -7.73.
With G48U U55G the “polymerase ribozyme fitness (log ratio)” value was -0.43.
In the case of G48U C62U G71C U96A, the “polymerase ribozyme fitness (log ratio)” value is reported as -2.08.
For G48A C64G U81A C89A, the “polymerase ribozyme fitness (log ratio)” value was -7.34.
With G48C G60U A74U C115U the “polymerase ribozyme fitness (log ratio)” value was -2.52.
For C49A A50G G52U A105U, the “polymerase ribozyme fitness (log ratio)” value was -1.36.
For C49A C85U G113A A119C, the “polymerase ribozyme fitness (log ratio)” value was -4.02.
In the case of C49A G61A, the “polymerase ribozyme fitness (log ratio)” value is reported as 0.617.
For G48U G58U C72U, the “polymerase ribozyme fitness (log ratio)” value was 0.601.
For G48A G61U, the “polymerase ribozyme fitness (log ratio)” value was -0.0763.
With G48C C56A C97A C104U U112G the “polymerase ribozyme fitness (log ratio)” value was -6.59.
In the case of G48U C62U, the “polymerase ribozyme fitness (log ratio)” value is reported as -0.185.
For G48U G61C U78G C98U, the “polymerase ribozyme fitness (log ratio)” value was -5.49.
In the case of G48C G63A, the “polymerase ribozyme fitness (log ratio)” value is reported as -0.954.
In the case of G48C G63C, the “polymerase ribozyme fitness (log ratio)” value is reported as -2.72.
With G48U C53U the “polymerase ribozyme fitness (log ratio)” value was -2.55.
For G48U C53G, the “polymerase ribozyme fitness (log ratio)” value was -1.34.
With G48A C101U G117C U129C the “polymerase ribozyme fitness (log ratio)” value was -6.15.
For G48A C72U C101G U133A, the “polymerase ribozyme fitness (log ratio)” value was -2.79.
In the case of G48U C64U, the “polymerase ribozyme fitness (log ratio)” value is reported as -0.368.
In the case of C49A G61A C89G U106G C123U, the “polymerase ribozyme fitness (log ratio)” value is reported as -3.4.
In the case of G48U C86A, the “polymerase ribozyme fitness (log ratio)” value is reported as -0.67.
For G48C U55G C79U A84C C85G G93U C124A, the “polymerase ribozyme fitness (log ratio)” value was 0.322.
For G48A U54A, the “polymerase ribozyme fitness (log ratio)” value was -0.741.
For G48U C114U, the “polymerase ribozyme fitness (log ratio)” value was -2.73.
For G48U U54C C82G C115G, the “polymerase ribozyme fitness (log ratio)” value was -3.12.
In the case of G48U G71U U81A C124U, the “polymerase ribozyme fitness (log ratio)” value is reported as -0.483.
In the case of G48A G57C C115G G122A, the “polymerase ribozyme fitness (log ratio)” value is reported as -1.91.
With G48U C102A A111G the “polymerase ribozyme fitness (log ratio)” value was -1.65.
With G48A U126G the “polymerase ribozyme fitness (log ratio)” value was -2.42.
In the case of G48U G51C A95C A111G U134A, the “polymerase ribozyme fitness (log ratio)” value is reported as -4.35.
For G48C U106A, the “polymerase ribozyme fitness (log ratio)” value was 0.0361.
For G48C C62U A75G, the “polymerase ribozyme fitness (log ratio)” value was -1.21.
With G48A G51U the “polymerase ribozyme fitness (log ratio)” value was -2.61.
In the case of G48A G57A G69U, the “polymerase ribozyme fitness (log ratio)” value is reported as -0.155.
In the case of G48C G61A A83U U87A G128U, the “polymerase ribozyme fitness (log ratio)” value is reported as -3.32.
For G48A G113C, the “polymerase ribozyme fitness (log ratio)” value was -2.26.
With G48U G63A G110U the “polymerase ribozyme fitness (log ratio)” value was -4.15.
For G48A C62A U96A, the “polymerase ribozyme fitness (log ratio)” value was -2.62.
For G48C C72U U78C C86A C101A C114U C124U, the “polymerase ribozyme fitness (log ratio)” value was -4.1.
For G48A U81A C102U, the “polymerase ribozyme fitness (log ratio)” value was -4.06.
In the case of G48U C88U G110A, the “polymerase ribozyme fitness (log ratio)” value is reported as -1.01.
With G48A U130A the “polymerase ribozyme fitness (log ratio)” value was -1.78.
For C49A G52A, the “polymerase ribozyme fitness (log ratio)” value was -0.855.
In the case of G48A G63A C97A U112C, the “polymerase ribozyme fitness (log ratio)” value is reported as -4.92.
With C49A G61U U87C C98A the “polymerase ribozyme fitness (log ratio)” value was -3.8.
For G48U A66U C72A U96G U112C, the “polymerase ribozyme fitness (log ratio)” value was -1.61.
In the case of G48C U131A, the “polymerase ribozyme fitness (log ratio)” value is reported as -1.82.
In the case of G48A U96A, the “polymerase ribozyme fitness (log ratio)” value is reported as -1.94.
With G48C C79U the “polymerase ribozyme fitness (log ratio)” value was -1.34.
In the case of G48U G69A C85G, the “polymerase ribozyme fitness (log ratio)” value is reported as -3.42.
In the case of G48U A66G C86A U125G G127C, the “polymerase ribozyme fitness (log ratio)” value is reported as -3.31.
For G48A U59A C79U U125G U130G, the “polymerase ribozyme fitness (log ratio)” value was -1.48.
In the case of G48U C97G, the “polymerase ribozyme fitness (log ratio)” value is reported as -4.5.
For G48U C62A A91U C123U U125A, the “polymerase ribozyme fitness (log ratio)” value was -4.09.
For G48U C72G, the “polymerase ribozyme fitness (log ratio)” value was -1.7.
With G48U C73G the “polymerase ribozyme fitness (log ratio)” value was -1.73.
With G48U C56U C104A the “polymerase ribozyme fitness (log ratio)” value was -2.25.
In the case of G48U G57C, the “polymerase ribozyme fitness (log ratio)” value is reported as -0.412.
For G48C A90U U112A, the “polymerase ribozyme fitness (log ratio)” value was -0.162.
With G48C A90U U112G the “polymerase ribozyme fitness (log ratio)” value was -2.32.
With G48A C123A G135A the “polymerase ribozyme fitness (log ratio)” value was 0.126.
In the case of G48U C53G C86U C98A C123G C124A, the “polymerase ribozyme fitness (log ratio)” value is reported as -5.23.
